The assay concerns the target GalNAc-glycosylated recombinant MUC2 fragment (UniProt Q02817). The assay can be described thus: peptide or protein array.

With “GalNAc-T2 with a mutation in the α-lectin subdomain (GalNAc-T2^458H) (from UniProt Q10471 52-571) (enzyme)”, the percent of the total binding (of GalNAc-T2 to GalNAc-MUC2, with Mn2+ and UDP) came out at 20%.

Values taken from PMC3173194.
